# From PMC11148541 (Cancer Immunology Research, 2024)
# T1: mouse IL18BPd-Fc (mouse, UniProt Q9Z0M9 29-193)
# T1 sequence: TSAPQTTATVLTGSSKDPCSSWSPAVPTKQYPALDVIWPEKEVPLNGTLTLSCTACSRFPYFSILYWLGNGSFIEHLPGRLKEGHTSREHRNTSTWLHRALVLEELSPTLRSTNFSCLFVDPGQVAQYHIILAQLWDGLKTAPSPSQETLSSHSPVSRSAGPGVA
# Target: T1, mouse IL18BPd-Fc
# Assay: KinExA
binder,measurement,value
mouse IL18 (ligand) NFGRLHCTTAVIRNINDQVLFVDKRQPVFEDMTDIDQSASEPQTRLIIYMYKDSEVRGLAVTLSVKDSKMSTLSCKNKIISFEEMDPPENIDDIQSDLIFFQKRVPGHNKMEFESSLYEGHFLACQKEDDAFKLILKKKDENGDKSVMFTLTNLHQS,Kd,3.7 pM
